The text below walks through data of patent publication US20160168251A1.

The target in the assay is human NPRA on HEK293 cells, without added ligand (human) (UniProt P16066). As to the kind of experiment: cell-based or functional assay.
human NPRA on HEK293 cells, without added ligand (human), sequence (P16066 33-1061 limits assumed): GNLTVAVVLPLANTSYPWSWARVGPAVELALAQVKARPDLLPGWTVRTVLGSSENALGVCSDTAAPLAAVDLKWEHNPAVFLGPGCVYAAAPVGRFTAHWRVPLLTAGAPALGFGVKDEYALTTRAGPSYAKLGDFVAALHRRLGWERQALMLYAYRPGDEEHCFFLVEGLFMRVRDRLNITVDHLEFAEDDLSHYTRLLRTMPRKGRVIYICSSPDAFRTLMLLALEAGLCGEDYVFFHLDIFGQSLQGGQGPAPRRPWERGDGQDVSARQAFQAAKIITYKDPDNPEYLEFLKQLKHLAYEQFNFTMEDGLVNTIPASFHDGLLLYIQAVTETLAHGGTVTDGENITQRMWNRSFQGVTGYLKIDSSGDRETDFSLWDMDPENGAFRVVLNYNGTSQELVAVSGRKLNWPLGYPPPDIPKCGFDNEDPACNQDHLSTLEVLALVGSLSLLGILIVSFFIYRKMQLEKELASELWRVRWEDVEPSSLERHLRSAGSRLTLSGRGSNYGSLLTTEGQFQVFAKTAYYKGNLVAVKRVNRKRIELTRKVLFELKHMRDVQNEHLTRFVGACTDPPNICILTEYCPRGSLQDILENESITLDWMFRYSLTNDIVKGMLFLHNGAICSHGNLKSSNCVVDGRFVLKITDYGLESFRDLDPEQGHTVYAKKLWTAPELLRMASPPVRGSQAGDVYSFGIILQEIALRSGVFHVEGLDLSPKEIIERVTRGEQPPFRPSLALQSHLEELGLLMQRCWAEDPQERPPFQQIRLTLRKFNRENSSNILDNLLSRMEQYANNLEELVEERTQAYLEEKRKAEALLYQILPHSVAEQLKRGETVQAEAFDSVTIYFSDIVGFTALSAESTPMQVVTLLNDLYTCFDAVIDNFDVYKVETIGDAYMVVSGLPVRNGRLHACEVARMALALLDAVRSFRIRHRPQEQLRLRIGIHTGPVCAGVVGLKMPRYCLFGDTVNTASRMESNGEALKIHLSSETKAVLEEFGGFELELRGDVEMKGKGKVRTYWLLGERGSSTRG

“B-type natriuretic peptide (BNP), free (from UniProt P16860 27-134) (ligand)”: the EC50 of BNP, cGMP production in HEK NPRA cells, in presence of negative control Fab turned out to be 90 nM.
